This assay has as its target Arabidopsis thaliana HAPLESS 2 ectodomain (AtHAP2e; aa 25-494) (Arabidopsis thaliana) (UniProt F4JP36). The experiment in a line: crystal structure; AtHAP2e set to crystallize as a monomer; hanging drop, 293 K, 100 mM sodium citrate pH 4.5, 200 mM zinc acetate; space group P6_(3).

What is called stoichiometry N is a count of units in the complex or per binding partner. “Arabidopsis thaliana HAPLESS 2 ectodomain (AtHAP2e; aa 25-494) (from UniProt F4JP36 25-494) (domain or fragment)” displayed a stoichiometry N of 3.
